These results are taken from PMC7006622.

The target in the data set is thrombin (UniProt P00734;P00734 328-363;364-622). Briefly: single-molecule TIRF, transient Cy3 probe binding to switch; LOD 20 pM (not a Kd); no specific signal without thrombin; 1x PBS with oxygen scavenger system, 20 nM Cy3 probe, 25 +/- 1 C; switch immobilised on PEG/biotin-PEG streptavidin glass.

B1: thrombin-responsive three-way-junction molecular switch (B4 + G13 + CP1, probed by FP1) (structured_DNA)
DNA 1: TGGGATGGTTGGTGTGGTTGGCCGTACTCTATGAGCCTCTG
DNA 2: TCAGTGGGGTTGGACGGGATGGTGCCTGACCGTGT
DNA 3: TTTTTCAGAGGCTCATAGAGTACGG
DNA 4: AAACACGGATCCCATA
With B1, the binding result was “binds”.
